Results: US20220306715A1

Tests used:
[1] = target: interleukin-6 (IL-6) receptor; test: cell-based or functional assay
[2] = target: anti-IL-6ST antibody; test: sandwich ELISA on the MSD platform; capture: plate-bound anti-IL-6ST antibody; detection: anti-IL-12A antibody

EC50 of induction of apoptosis in IL-6 dependent DS-1 cells cultured 24 hours with IL-6 (caspase 3/7 luciferase assay) [1] [nM]	EC50 (read off the curve) [2] [µg/mL]	Substance
317		tocilizumab (antibody)
	0.7	mIL-6R-Fc-IL-35 chimeric protein (from UniProt Q00560 23-617; P43431 23-215; P22272 20-364; O35228 19-228) (Fc fusion)
